We go through 22 molecules from patent US20210292393A1 (published 2021).

Numbering of substitutions follows the chain as printed.

The chains are these.
B1: antibody 537 (antibody, V domains shown)
VH: QVQLQQWGAGLLKPSETLSLTCAVYGGSFSGYYWSWIRQPPGKGLEWIGEINHSGSTNYNPSLKSRVTISVDTSKNQFSLKLSSVTAADTAVYYCARGLYYDMGGGFDYWGQGTLVTVSS
VL: not shown
B2: antibody 497 (antibody, V domains shown)
VH: QVQLQESGPGLVKPSQTLSLTCTVSGGSINSFGYYWSWIRQHPGKGLEWIGYIYYSGSTDYNPSLNSRVTISLDTSKNQFLLKLTSVTAADTAVYYCAKLTDYYDSSGYSFDYWGQGTLVTVSS
VL: DIQMTQSPSSVSASVGDRVTITCRASQDISRWLAWYQQKPGKAPKLLIYAASSLQSGVPSRFSGRGSGTELTLTISSLQPEDFATYFCQQAYSFPFTFGGGTKVEIK
B3: antibody 522 (antibody, V domains shown)
VH: EVQLVESGGGLVQPGGSLRLSCAASGFNFSSYSMNWVRQAPGKGLEWVSYISSSSSTIYYADSVKGRFTISRDNAKNSLYLQMNSLRDEDTAVYYCARGPEWDIVVVQAENWFDPWGQGTLVTVSS
VL: SYELTQPPSVSVSPGQTARITCSGDALPKQYVYWYQQKPGQAPVLVIYKDSERPSGIPERFSGSSSGTTVTLTISGVQAEDEADYYCQSADSSGTYRGVFGGGTKLTVL
B4: antibody 523 (antibody, V domains shown)
VH: EVQLVESGGVSVQPGGSLRLSCAASGFSFNTYDMHWVRQGTGKGLEWVSGIGTAGDTYYSDSVKGRCTISRDNAKNSLHLLVKSVRAADTAVYYCARGVGGIIDYWGQGTLVTVSS
VL: NFVLSQPHSVSESPGKTVTISCTGNSGSIATKYVQWFQQRPGSAPTTVIYEDNQRPSGVPDRFSGSSDSSSNSASLTISGLKTEDEAHYYCQSYHNRRWVFGGGTKLTVL
B5: antibody 504 (antibody, V domains shown)
VH: QVQLVESGGGVVQPGRSLRLSCAASGFTFSSYGMHWVRQAPGKGLEWVAVISYDGSNKYYADSVKGRFTISRDNSKNTLYLQMNSLRAEDTAVYYCAKGGGGGYCSGGSCYSHYFDYWGQGTLVTVSS
VL: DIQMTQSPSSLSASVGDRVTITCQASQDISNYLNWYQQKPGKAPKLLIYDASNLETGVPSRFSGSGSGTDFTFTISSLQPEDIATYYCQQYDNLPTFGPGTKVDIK
B6: antibody 527 (antibody, V domains shown)
VH: QLQLQESGPGLVKPSETLSLTCTVSGGSISSSSYYWGWIRQPPGKGLEWIGSIYYSGSTYYNPSLKSRVTISVDTSKNQFSLKLSSVTAADTAMYYCASHVVVIASSYWCFDLWGRGTLVTVSS
VL: QSALTQPASVSGSPGQSITISCTGTSSDVGGYNYVSWYQQHPGKAPKLMIYDVSNRPSGVSNRFSGSKSGNTASLTISGLQAEDEADYYCSSYTSISTWVFGGGTKLTVL
B7: antibody 509 (antibody, V domains shown)
VH: QVQLVESGGGVVQPGRSLRLSCAASGFNLSSYAMHWVRQASGKGLEWVSLISYDGSIKYYTDSVKGRFTVSGDNSKNTLFLQMNSLRADDSALYYCVRGGVSGPNSFDLWGQGTTVTVSS
VL: DVVMTQSPLSLPVTLGQPASISCRSSQSLVYSDGNTYVNWFQQRPGQSPRRLIYKVSIRASGVPDRFSGSGSGTDFALKISRVEAEDVGVYYCMQGTHWPVTFGQGTKVEIK
B8: antibody 517 (antibody, V domains shown)
VH: B7 VH with S31N, L109M
VL: B7 VL with K55Q
B9: antibody 492 (antibody, V domains shown)
VH: QVQLVESGGGVVQPGRSLRLSCAASGFTFSSYGMHWVRQAPGKGLEWVAVISYDGSNKYYADSVKGRFTISRDNSKNTLYLQMNSLRAEDTAVYYCAKDGILWWWWGYFDYWGQGTLVTVSS
VL: QSVLTQPPSVSGAPGQRVTISCTGSSSNIGAGFDVHWYQQLPGTAPKLLIYGNSNRPSGVPDRFSGSKSGTSASLAITGLQAEDEADYYCQSYDSSLSVVFGGGTKLTVL
B10: antibody 514 (antibody, V domains shown)
VH: EVQLVQSGAEVKKPGATVKISCKVSGYTFTDYYMHWVQQAPGKGLEWMGLVDPEDGETIYAEKFQGRVTITADTSTDTAYMELSSLRSEDTAVYYCATDCKYDILTGHYSAGYYYYGMDVWGQGTTVTVSS
VL: DIQMTQSPSSLSASVGDRVTITCRASQGISNYLAWFQQKPGKAPKSLIYAASSLQSGVPSKFSGSGSGTDFTLTISSLQPEDFATYYCQQYNSYPFTFGGGTKVEIK
B11: antibody 533 (antibody, V domains shown)
VH: GVQLVESGGVVVQPGGSLRLSCAASGFSFDDYTMHWVRQAPGKGLEWVSLVSWDGGTTYYTDSVKGRFTISRDNSKNSLYLQMNSLRTEDTALYFCAKDSGRIVPAATFDYWGQGTLVTVSS
VL: B10 VL with P8S, G28D, N92Y, S93T, F96L
B12: antibody 496 (antibody, V domains shown)
VH: QVQLVQSGAEVKKPGASVKVSCKASGYTFTDYYIHWVRQAPGQGLEWMGWINPNSGGTNYAQKFQGRLTMTRDTSISTAYMELSRLRSDDTAVYYCARVYSMFREFIINPYYYYYGLDVWGQGTTVTVSS
VL: QSALTQPASVSGSPRQSITISCTGTSSDVGSYNLVSWYQQHPGKAPKLMIYEGSKRPSGVSNRFSGSKSGNTASLAISGLQAEDEANYYCCSYAGSSTLVFGGGTKLTVL
B13: antibody 536 (antibody, V domains shown)
VH: QVQLVESGGGVVQPGRSLRLSCAASGFTFSSYVMHWVRQAPGKGLEWVALISYDGSNKYYADSVKGRFTISRDNSKNTLYLQMNSLRAEDTAVYYCARGGHIRVGRYFDWLISYFDYWGQGTLVTVSS
VL: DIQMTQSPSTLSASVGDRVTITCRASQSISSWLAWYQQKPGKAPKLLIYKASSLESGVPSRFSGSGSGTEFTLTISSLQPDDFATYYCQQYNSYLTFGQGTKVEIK
B14: antibody 510 (antibody, V domains shown)
VH: QVQLQESGPGLVKPSQTLSLTCTVSGGSISSGSYYWSWIRQPAGKGLEWIGRIYTSGSTNYNPSLKSRVTISVDTSKNQFSLKLSSVTAADTAVYYCAREGQWLYRFDYWGQGTLVTVSS
VL: QSALTQPASVSGSPGQSITISCTGTSSDVGNYDLVSWYQQHPGKAPKLVIYGVTKRPSGVSNRFSGSKSGNTASLTISGLQAEDEADYYCCSYATGDTSVFGTGTKVTVL
B15: antibody 516 (antibody, V domains shown)
VH: QVELQQWGAGLLKPSETLSLTCAVYGGSFSGYYWSWIRQPPGKGLEWIGEINHSGSTNYNPSLKSRVTISIDTSKNQFSLKLSSVTAADTAVYYCARGTTVTTFFAPHWYFDLWGRGTLVTVSS
VL: QSALTQPASVSGSPGQSITISCTGTSSDVGGYNYVSWYQQHPGKAPKLMIYDVSNRPSGVSNRFSGSKSGNTASLTISGLQAEDEADYYCSSYTSSSTPYVFGTGTKVTVL
B16: antibody 363 (antibody, V domains shown)
VH: EVQLLESGGGLVQPGGSLRLSCAASGFTFSTYAMSWVRQAPGKGLEWVSAISGSGGSTYYADSVKGRFTISRDNSKNTLYLQMNSLRAEDTAVYYCASGYSPDYWGQGTLVTVSS
VL: not shown
B17: antibody 366 (antibody, V domains shown)
VH: QVQLVESGGGVVQPGRSLRLSCAASGFTFSSYAMHWVRQAPGKGLEWVAVISYDGSNKYYADSVKGRFTISRDNSKNTLYLQMNSLRAEDTAVYYCARGLVGYNWFDPWGQGTLVTVSS
VL: DIQMTQSPSSVSASVGDRVTITCRASQGISSWLAWYQQKPGKAPKLLIYAASSLQSGVPSRFSGSGSGTDFTLTISSLQPEDFATYYCQQANSFTFGPGTKVDIK
B18: antibody 367 (antibody, V domains shown)
VH: QVQLVQSGAEVKKPGASVKVSCKASGYTFTGYYIHWVRQAPGQGLEWMGWINPNSGGTIYAQKFQGRVTMTRDTSISTAYMELSRLTSDDTAVYSCAREPYYDILTGYYAPRRYFDYWGQGTLVTVSS
VL: B6 VL with G31S, Q39L, Y88F, I96R, W99Y, G103T, L107V
B19: antibody 351 (antibody, V domains shown)
VH: HVQLVESGGGVVQPGRSLRLSCAASGFISRNYGMEWVRQAPGQGLEWVAGIWYDGSKKYYADSVKGRFTISRDTSKNTLFLQMDSLRAEDTAVFYCATATKTFCGGDCPPGGMDVWGQGTTVTVST
VL: SYVLTQPPSVSVAPGKTAWITCVGNNIESESVHWYQQRPGQAPVLVIYYDSDRPSGIPERFFGSNSGNTATLTISRVEAGDEADYYCQVWDSNSDLMVFGGGTKLTVL
B20: antibody 378 (antibody, V domains shown)
VH: QVQLVQSGAEVKKPGASVKVSCKASGYTFTSYYMHWVRQAPGQGLEWMGIINPSGGSTSYAQKFQGRVTMTRDTSTSTVYMELSSLRSEDTAVYYCARDSGGMDDFWSGYYSPGGDYWGQGTLVTVSS
VL: B12 VL with R15G, A76T, N87D, L99W
B21: antibody 372 (antibody, V domains shown)
VH: QVQLVESGGGVVQPGRSLRLSCAASGFTFSSYAMHWVRQAPGKGLEWVAVISYDGSNKYYADSVKGRFTISRDNSKNTLYLQMNSLRAEDTAVYYCARDLGTSALLWFGELFLNYGMDVWGQGTTVTVSS
VL: QSALTQPRSVSGSPGQSVTISCTGTSSDVGGYNYVSWYQQHPGKAPKLMIYDVSKRPSGVPDRFSGSKSGNTASLTISGLQAEDEADYYCCSYAGSPILVFGGGTKLTVL
B22: antibody 380 (antibody, V domains shown)
VH: QVQLVESGGGVVQPGRSLRLSCAASGFTLKNYGMHWVRQAPGKGLEWVIVLSFDGSDEYKADSVRGRFTVSRDNSKNTLFLQMNSLRPDDTAVYYCAREQPTMIEGGRGPFDIWGQGTMVTVSS
VL: EVVMTQSPATLSVSPGDRATLSCRASQGVNSNLAWYQQKPGQAPRLLIYAASTRATGIPARFSASGSGTHFTLTISSLQSEDFAVYYCLQYNNWPPWTFGQGTKLEIK

The first experiment concerns the target SARS-CoV-2 full length spike protein, wild type, expressed on the surface of CHO cells (SARS-CoV-2, UniProt P0DTC2 14-1273).
In the case of B1, the “median fluorescence fold over isotype control” value amounted to 4.42 fold over isotype.

For the molecule B2, the “median fluorescence fold over isotype control” value was found to be 28.3 fold over isotype.

Take B3: the “median fluorescence fold over isotype control” value amounted to 9.18 fold over isotype.

As to B4, the “median fluorescence fold over isotype control” value was found to be 5.18 fold over isotype.

As for B5, the “median fluorescence fold over isotype control” value was found to be 2.78 fold over isotype.

As for B6, the “median fluorescence fold over isotype control” value is 10.4 fold over isotype.

On to B7, for which the “median fluorescence fold over isotype control” value was determined as 10.2 fold over isotype.

In the case of B8, the “median fluorescence fold over isotype control” value is 10.3 fold over isotype.

Turning to B9, the “median fluorescence fold over isotype control” value came out at 9.25 fold over isotype.

For the molecule B10, the “median fluorescence fold over isotype control” value was 1.04 fold over isotype.

As for B11, the “median fluorescence fold over isotype control” value was determined as 4.31 fold over isotype.

Consider B12, for which the “median fluorescence fold over isotype control” value stood at 19.7 fold over isotype.

B13: the “median fluorescence fold over isotype control” value turned out to be 2.36 fold over isotype.

As for B14, the “median fluorescence fold over isotype control” value was 1.18 fold over isotype.

In the case of B15, the “median fluorescence fold over isotype control” value was determined as 3.31 fold over isotype.

For another experiment, the target named is SARS-CoV-2 spike (S) protein, full length, wild type, expressed on the surface of CHO cells (SARS-CoV-2, UniProt P0DTC2 14-1273).
For the molecule B16, the “median fluorescence fold over isotype” value is 16.8 fold over isotype.

With B17, the “median fluorescence fold over isotype” value worked out at 8.97 fold over isotype.

In the case of B18, the “median fluorescence fold over isotype” value came to 26.5 fold over isotype.

As for B19, the “median fluorescence fold over isotype” value was found to be 1.06 fold over isotype.

Consider B20, for which the “median fluorescence fold over isotype” value was found to be 25.3 fold over isotype.

Turning to B21, the “median fluorescence fold over isotype” value came out at 30.2 fold over isotype.

Take B22: the “median fluorescence fold over isotype” value came out at 1.06 fold over isotype.
